Holding throughout (assay): AVEXIS screen signal:noise (double-corrected)
Test [1] deals with T1, ADP372.
T1 chain: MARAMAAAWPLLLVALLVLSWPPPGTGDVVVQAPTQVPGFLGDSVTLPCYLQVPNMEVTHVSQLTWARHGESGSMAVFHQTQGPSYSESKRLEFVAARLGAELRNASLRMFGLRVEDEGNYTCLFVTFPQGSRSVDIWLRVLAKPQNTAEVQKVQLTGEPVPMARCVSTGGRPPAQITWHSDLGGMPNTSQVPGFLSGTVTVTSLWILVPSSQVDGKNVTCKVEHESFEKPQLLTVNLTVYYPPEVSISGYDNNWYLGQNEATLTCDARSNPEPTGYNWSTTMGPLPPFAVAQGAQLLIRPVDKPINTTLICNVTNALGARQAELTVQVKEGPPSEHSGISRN

Test [2] deals with T2, ADP150.
T2 chain: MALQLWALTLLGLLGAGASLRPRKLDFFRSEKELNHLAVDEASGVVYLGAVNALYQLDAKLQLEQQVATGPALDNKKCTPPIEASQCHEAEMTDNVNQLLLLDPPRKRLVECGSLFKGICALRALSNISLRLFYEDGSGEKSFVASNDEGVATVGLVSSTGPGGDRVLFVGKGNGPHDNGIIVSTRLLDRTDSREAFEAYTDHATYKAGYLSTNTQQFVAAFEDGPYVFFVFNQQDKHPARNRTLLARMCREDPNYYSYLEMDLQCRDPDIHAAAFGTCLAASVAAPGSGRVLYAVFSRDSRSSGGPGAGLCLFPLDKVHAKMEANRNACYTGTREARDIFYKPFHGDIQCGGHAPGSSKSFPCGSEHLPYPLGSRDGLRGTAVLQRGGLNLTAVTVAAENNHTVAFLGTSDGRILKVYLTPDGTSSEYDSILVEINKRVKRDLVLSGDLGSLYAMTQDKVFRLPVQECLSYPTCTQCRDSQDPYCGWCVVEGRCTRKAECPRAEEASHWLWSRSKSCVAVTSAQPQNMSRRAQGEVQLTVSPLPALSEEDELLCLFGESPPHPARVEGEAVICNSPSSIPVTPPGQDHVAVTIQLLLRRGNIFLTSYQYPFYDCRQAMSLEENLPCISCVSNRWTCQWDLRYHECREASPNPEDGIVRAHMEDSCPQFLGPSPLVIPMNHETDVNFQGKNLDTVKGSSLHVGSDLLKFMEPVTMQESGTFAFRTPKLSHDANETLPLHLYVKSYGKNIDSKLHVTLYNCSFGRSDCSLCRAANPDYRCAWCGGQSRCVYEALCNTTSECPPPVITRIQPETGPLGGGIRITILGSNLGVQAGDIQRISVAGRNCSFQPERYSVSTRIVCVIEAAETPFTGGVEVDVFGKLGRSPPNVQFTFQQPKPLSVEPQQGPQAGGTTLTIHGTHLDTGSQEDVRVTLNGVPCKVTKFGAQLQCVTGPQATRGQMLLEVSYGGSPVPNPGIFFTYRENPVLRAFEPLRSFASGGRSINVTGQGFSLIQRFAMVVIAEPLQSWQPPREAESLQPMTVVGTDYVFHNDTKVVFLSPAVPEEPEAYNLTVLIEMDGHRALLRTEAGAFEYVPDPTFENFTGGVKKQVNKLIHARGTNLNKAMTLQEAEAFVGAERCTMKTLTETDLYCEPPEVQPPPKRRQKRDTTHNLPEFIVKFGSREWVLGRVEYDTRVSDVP

Test [3] deals with T3, ADP103.
T3 chain: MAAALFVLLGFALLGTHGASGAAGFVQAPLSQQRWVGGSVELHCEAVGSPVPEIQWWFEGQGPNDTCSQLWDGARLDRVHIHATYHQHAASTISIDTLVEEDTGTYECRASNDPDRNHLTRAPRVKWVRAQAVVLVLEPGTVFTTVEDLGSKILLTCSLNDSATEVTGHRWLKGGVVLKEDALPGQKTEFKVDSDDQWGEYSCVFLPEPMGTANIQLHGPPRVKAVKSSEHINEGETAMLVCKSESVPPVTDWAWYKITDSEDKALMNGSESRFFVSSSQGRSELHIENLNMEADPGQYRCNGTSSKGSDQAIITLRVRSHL

Test [4] concerns the target T4, ADP315.
T4 chain: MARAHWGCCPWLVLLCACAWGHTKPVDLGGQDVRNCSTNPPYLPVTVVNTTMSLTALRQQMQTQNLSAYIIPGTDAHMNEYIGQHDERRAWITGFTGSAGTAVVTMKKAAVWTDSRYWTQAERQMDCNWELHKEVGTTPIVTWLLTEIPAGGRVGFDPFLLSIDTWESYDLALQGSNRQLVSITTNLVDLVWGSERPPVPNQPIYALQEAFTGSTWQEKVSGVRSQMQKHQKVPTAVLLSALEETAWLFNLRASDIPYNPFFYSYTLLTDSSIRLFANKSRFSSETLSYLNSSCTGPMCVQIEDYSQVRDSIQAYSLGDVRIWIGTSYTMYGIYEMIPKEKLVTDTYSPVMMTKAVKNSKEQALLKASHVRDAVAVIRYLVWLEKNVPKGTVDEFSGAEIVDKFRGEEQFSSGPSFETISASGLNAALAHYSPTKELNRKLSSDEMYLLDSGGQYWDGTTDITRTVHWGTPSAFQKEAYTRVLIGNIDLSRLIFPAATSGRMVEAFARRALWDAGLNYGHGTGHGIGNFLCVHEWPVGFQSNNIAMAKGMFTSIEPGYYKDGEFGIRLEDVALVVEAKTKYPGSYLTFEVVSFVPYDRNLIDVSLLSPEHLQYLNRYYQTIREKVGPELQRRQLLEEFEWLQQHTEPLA

Test [5] addresses T5, ADP133.
T5 chain: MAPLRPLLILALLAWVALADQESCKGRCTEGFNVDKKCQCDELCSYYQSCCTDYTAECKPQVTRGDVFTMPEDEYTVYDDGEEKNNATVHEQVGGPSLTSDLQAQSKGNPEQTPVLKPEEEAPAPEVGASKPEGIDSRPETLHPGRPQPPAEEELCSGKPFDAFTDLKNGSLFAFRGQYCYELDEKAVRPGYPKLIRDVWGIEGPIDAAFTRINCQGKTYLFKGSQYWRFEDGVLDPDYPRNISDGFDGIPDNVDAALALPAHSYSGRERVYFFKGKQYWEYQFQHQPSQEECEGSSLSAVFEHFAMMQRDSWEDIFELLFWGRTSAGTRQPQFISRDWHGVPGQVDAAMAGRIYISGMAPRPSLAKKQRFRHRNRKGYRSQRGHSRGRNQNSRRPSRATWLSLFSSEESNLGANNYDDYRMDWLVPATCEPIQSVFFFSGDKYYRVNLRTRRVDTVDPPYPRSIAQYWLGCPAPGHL

Test [6] concerns the target ADP323.
Test [7] has as its target ADP110.
Test [8] has as its target ADP112.

This is an account of results in paper PMC11098746 (2024).

B1: ADP178 (protein)
chain: SDTFRVFEDFDVRRKNKIWCCNLNHEKSYFHNKAINTAYKNRVLKESILLNLDLDMKKYKDNIITRKKTPENIYKEIYENNYEMKYDEDIPNNMAEEKRDEKEVIEHLEIDEKNGKQYKSDINKPVSLSHLKQYKNIYVNNNNKINKKKSIDKHLPSYNLERKNNKYLNFLLVDNRNEAYTFMVPMKFYINHEMYNIADEEYNKLMEDNSVDVYLNNILVEYKYENFEIKEGEVDGEVEGEGEVEGEVEGEVKGKVVEGIENNMNEEEKYNKDNKDKENQINSNGQDENTEFQENDNNDAVIMKYT
modifications: bait human Fc-tagged dimer; N-glycosylation sequons mutated in Plasmodium baits
For B1, the binding score in test [1] turned out to be 5.47; in test [2], 8.31; in test [3], 10.2.

B2: ADP173 (protein)
chain: EVESSDSTSFLNLISGQSSSNSDDTVSSSDSRGVVASVSGTVDSDVSRTDSTGNVNSKNSELSETRQNSVEQNNNANSADNSIKIKSAFLKENVGVKITGPCDEGFGLVMVPHIIINVDTRNTDIQLGKKSSEINYGIKLRKKGKDEYEEKVGIDLLKNVCETGKNFKFVAYIKGDELIIKWKVIEEGNIPIDIKKFKIKRMSPPITSIQVFSSMSDEKSFVLENKNYVVTNNMPEKCEALATNCFLSGNIDIEKCYQCSLLVENDAKSDVCYNFISRENKEKLNEERFKVKGSTEYEESVESELKGAIDLLISSFYKSDGENGENVLISFEDLNSALEDDIINFCSLLKLVDLSGTFMNHQIGTTADAFNNIVKLLKEHKEEDEFVLRTKLRNPALCMKNVDDWVKSRCGLLTSDDSYVVIKKNSDTNGKNENNEANDEEYDGVIDLSTNENGNVKSIQFNDDIYCNDDYCNRWKNENNCISKIGVEDQGNCASSWAFASKLHFETLRCMKGYDHLGISALYLTNCAKGKISKRCTEGGNPAEFLEIVSNSGFLPTEFDYPYFYALVENSCPSGLNKWINLWEDVKLFDYKYEPNSIGSKGYSVYKSEMFKDNMDEYVKMIKSEIKNKGSVIAYINAQSVLTYDFNGKNILNMCGSKTTDHSINVIGYGHYKNKEGEEKSYWLVRNSWGYYWGDEGNFKVDMYGPSNCNYHFINTVLVFNIDIPMMNNNENNKKGLYNYFPKYTHEFYHNFYDQNFGSDNKISLINSNGANKNDVNNAYTVHGQSGETEVQPSQLRSTANQDSNRGAVTSDPLRTQPETTSTSVKKMDVFQVLKHVKNSKIKVGLIKYDNDDEIGAHHSCTRAYSFDPEKYDECVEFCRKNWEQCKDKPSPGFCLTKLDESKGCFFCYV
modifications: bait human Fc-tagged dimer; N-glycosylation sequons mutated in Plasmodium baits
In the case of B2, the binding score in test [4] is 5.31; in test [5], 6.59; in test [3], 7.09; in test [6] it was 7.35.

B3: ADP189 (protein)
chain: NNIAHKEDDCGASELAIKKLQELKKFELDILKDFIKKDTDHTDMYKRYHCISSDFLKNTKQEDKKEDNYAKKEDKKDIENSANYIINNKNEKISFINKIISFVGMWNYNKYGNNIQESKNKINIYNNNNNKAENELLYNKEDYTNHIPTNENPNSYMQLSAFNLAKKSMFLGGKDNAAQNFEVGNYGSFYMIFGARNTDYPWACSCDTLQLEEYKEKKRSYVLCSNQLDMSIQNSDLFCNPKN
modifications: bait human Fc-tagged dimer; N-glycosylation sequons mutated in Plasmodium baits
In the case of B3, the binding score in test [7] turned out to be 34.1; in test [8] it was 7.26.
